Entries after “also recorded” stand apart in the source; their conditions may differ.
Legend:
[1] = system: CHO-JAML and CHO-CAR cells; assay: CHO-JAML / CHO-CAR cell aggregation assay; assay type: cell-based; conditions: for aggregation of mixed CHO-CAR and CHO-JAML cultures (number and size of clusters): antibodies 30 μg/ml, 1 hour at 37° C., FIG. 1D
Description: FIG. 1D. CHO-K1 cells stably transfected with either JAML (CHO-JAML) or CAR (CHO-CAR) proteins were allowed to aggregate (1 hour at 37° C. on a shaker at 50 RPM) separately (1×10^6 cells/BSA coated 3 ml Petri dish), or as a mix (5×10^5 each cell type/dish), in the absence or presence of anti-JAML monoclonal antibodies DW100, DW55 and DW216 (30 μg/ml). The number of clusters (left) and the area of the clusters (right) were quantified in 7 randomly chosen fields using light microscopy. The results are representative of four independent experiments. CHO-CAR and CHO-JAML in mixed cultures formed large aggregates.
Because certain antibodies recognize the membrane distal domain of JAML, their ability to inhibit binding to CAR was tested. By ELISA, the levels of soluble CAR-GST bound to immobilized sJAML-His preincubated with anti JAML antibodies was measured. […] Thus, these antibodies recognize three different epitopes on JAML and that both DW100 and DW55 bind epitopes close to the JAML binding site. Using a cell aggregation assay, the possibility that DW100 could inhibit the binding of JAML to CAR expressed on the surface of cells was examined. […] This again confirms previously described JAML binding to CAR, as well as the specificity of DW100 (blocking) and DW216 (non-blocking) Abs to JAML.

T84 and CACO-2 cells = assay: Cell adhesion assay, PMN and HL60 to epithelial monolayers; assay type: cell-based, human; conditions: sJAML-His and mAbs 30 μg/ml, 1 hour
Description: PMN cells were pre-labeled with CellTracker™ Green (CMFDA). Labeled cells (2.5×10^5/well) were allowed to adhere for 1 hour to T84 (white bars) and CACO-2 (black bars) cells grown to confluency in 24 well tissue culture microtiter wells, in the absence (NoTx) or presence of soluble JAML (sJAML-His), 30 μg/ml), anti-JAML monoclonal antibodies DW100 and DW216 (30 μg/ml), or alternatively to stable CACO-2 cells lacking CAR. Non-adherent HL60 cells and PMN were removed by 3 washes with HBSS. Adherent cells were harvested by treating the monolayers with trypsin, followed by lysis with 0.1% Triton 100×. Fluorescence intensity was measured using FluoStar Galaxy plate reader at excitation/emission wavelengths of 485/535 nm.
JAML-CAR interactions are involved in PMN adhesion to epithelium. […] Indeed adhesion of both HL-60 cells and PMNs to epithelium is partly dependent upon JAML-CAR binding. […] HL-60 cells and PMNs also adhered to a lesser degree to Caco2 cells where the expression of CAR was stably knocked down, confirming the specificity of the adhesion events to JAML-CAR interactions.
Epithelial cells (T84/Caco-2) were seeded on 24-well plates (10^6 cells/well) and cultured until they reached confluence. […] Fluorescence intensity was measured using FluoStar Galaxy plate reader at excitation/emission wavelengths of 485/535 nm. […]

[2] = system: T84 epithelial monolayers; assay: Scratch wound closure of epithelial monolayers; assay type: cell-based, human; conditions: for epithelial wound closure: T84 scratch wound, monitored over 72 h, FIG. 10
Description: T84 epithelial monolayers grown to confluence were wounded by introduction of a single linear scratch wound using a 20-μl plastic pipette tip. Wound closure was monitored over 72 h in the absence or presence of PMN or sJAML. The scale bar is 10 μm.
Whether JAML binding to CAR would affect epithelial wound restitution was investigated. […] If soluble JAML interactions with CAR play a role, the effect could be reversed with the addition of blocking DW100 mAb.
Cell grown in 24-well tissue culture plates received one linear wound using a 20-μl plastic pipette tip attached to low suction. Wounded monolayers were washed once with PBS to remove detached cells and debris, and incubated with the appropriate stimulus added to the medium. The rate of migration was measured by determining the wound area immediately after wounding (t=0) and at the indicated time points. The data are presented as the area of the wound at each time point normalized to t=0. The experiments were carried out in triplicates per condition, and the data shown are representative of 4 independent experiments.

[3] = system: T84 intestinal epithelial cells; assay: EdU incorporation cell proliferation at wound edge; assay type: cell-based, human; conditions: FIG. 10C,D
Description: FIG. 10C. Epithelial monolayers were wounded as described above and cell proliferation at the wound edge after 24 hours incubation with either sJAML or sSIRPa (30 μg/ml), with or without the addition of DW100 mAb was assessed by EdU incorporation assay. Data presented as proliferating cells (positively stained with EdU) out of all cells in the field multiplied by 100. Cells were counted in 7 randomly selected fields in 4 independent experiments.
JAML binding CAR to inhibit epithelial cell proliferation was investigated as a possible mechanism for impeding wound healing.
Cell proliferation was assessed in […] (EdU) incorporation assay, by using a Click-iT EdU Alexa 488 cell proliferation kit (Invitrogen). Cell apoptosis was assessed by staining with sulforhodamine labeled caspase inhibitor SR-VAD-FMK from APO LOGIX
Sulforhodamine Caspase Detection kit (Cell Technology). Scratch wounded or confluent cells were subjected to treatment as indicated in the figure were incubated for 24 hrs at 370 C before addition of EdU or APO LOGIX Sulforhodamine Caspase Detection kits. At least 5 random fields per each condition were analyzed, the data are presented as % proliferating/apoptotic cells out of total cells in the field.

B1: DW100: monoclonal anti-human JAML antibody (IgG1,κ), hybridoma ATCC PTA-13051; VH SEQ ID NO:19, VL SEQ ID NO:22 (antibody, V domains shown)
VH: DVQLVESGAELVRPGASKLSCKALAYTFTDYEMHWVKQTPVHGLEWIGIIHPGSGGTVYNQKFKGKATLTADKSSSTAYMELSSLTSEDSTVYYCTRRRYYGSSYNWYFDVWGAGN
VL: VLTQSPASLAASVGETVTITCRASENIYYSLAWYQQKQGKSPQLLIYNANSLEDGVPSRFSGSGSGTQYSLKINSMQPEDTATYFCEQTYDVPLTFGAGTKLEL
aggregation of CHO-JAML cells alone (JAML-JAML) ([1]; FIG. 1): could not be blocked with DW100 mAb
aggregation of mixed CHO-CAR and CHO-JAML cultures (number and size of clusters) [1]: could be blocked with DW100; also recorded: significantly inhibited aggregation of mixed cultures of CHO transfectants; also recorded: significantly decreased both the size and the number of formed clusters
adhesion of HL60 cells and PMN to epithelial monolayer (T84 and CACO-2 cells; FIG. 8): decreased adhesion of HL60 cells and PMN to epithelial monolayer; also recorded: significantly decreased
reversal of PMN or sJAML inhibition of wound closure ([2]; T84, mAb 30 μg/ml, FIG. 10A,B): reversed this inhibition; also recorded: significantly improved wound restitution
block of soluble JAML inhibition of proliferation ([3]; EdU): blocked by addition of DW100

B2: sJAML: recombinant soluble fragment of JAML.D1D2 tagged with 10 His residues at the C-terminus (protein)
chain: LNDLNVSPPELTVHVGDSALMGCVFQSTEDKCIFKIDWTLSPGEHAKDEYVLYYYSNLSVPIGRFQNRVHLMGDILCNDGSLLLQDVQEADQGTYICEIRLKGESQVFKKAVVLHVLPEEPKELMVHVGGLIQMGCVFQSTEVKHVTKVEWIFSGRRAKEEIVFRYYHKLRMSVEYSQSWGHFQNRVNLVGDIFRNDGSIMLQGVRESDGGNYTCSIHLGNLVFKKTIVLHVSPEEPRTL
aggregation of mixed CHO-CAR and CHO-JAML cultures (number and size of clusters) [1]: blocked
adhesion of HL60 cells and PMN to epithelial monolayer (T84 and CACO-2 cells; FIG. 8, listed as soluble JAML): decreased adhesion of HL60 cells and PMN to epithelial monolayer; also recorded: significantly decreased
epithelial wound closure [2]: inhibited wound closure
epithelial wound closure ([2]; listed as Soluble JAML): delayed both epithelial barrier recovery and wound restitution
proliferation of epithelial cells at wound edge (EdU) ([3]; 30 μg/ml, 24 hours): significantly inhibits proliferation of T84 intestinal epithelial cells

— patent US10465005B2, “JAML specific binding agents, antibodies, and uses related thereto” (Emory University, priority 2011, dated 2019)
